From patent publication US20060241051A1 (Takeda / Millennium, published 2006)
Numbered stars: 1 amine (or outer) side, 2 acyl side, 3 side chain; on linkers, the order of the positions; unused ones are H or OH. Square brackets hold non-standard residues; d marks the D form. Ends that are not written are not given here. * marks the point of attachment. Ala(2-Qui) = 2-quinolylalanine, O=C([C@H](Cc1ccc2ccccc2n1)N[*:1])[*:2]; Propanoyl(3-(3-pyridyl)) = O=C(CCc1cccnc1)*; Phe(4-F) = N[C@@H](Cc1ccc(F)cc1)C(=O)O; Arg(Me) = CNC(=N)NCCC[C@H](N)C(=O)O; Lys(Me2) = CN(C)CCCC[C@H](N)C(=O)O; 4Pal = N[C@@H](Cc1ccncc1)C(=O)O; d3Pal = N[C@H](Cc1cccnc1)C(=O)O; d4Pal = N[C@H](Cc1ccncc1)C(=O)O; Cha = N[C@@H](CC1CCCCC1)C(=O)O; Orn = NCCC[C@H](N)C(=O)O; Boc = CC(C)(C)OC(=O)*; azaGly = NNC(=O)O

What was measured:
[1] = target: human OT7T175 (metastin receptor) (human) (UniProt Q969F8); experiment: cell-based or functional assay
[2] = target: T1, human OT7T175 (metastin receptor) (human, UniProt Q969F8 1-398); experiment: cell-based or functional assay
[3] = target: T1, human OT7T175 (metastin receptor); experiment: FMAT competition with Cy-5-labeled metastin (40-54), hOT7T175-expressed CHO cells

human OT7T175 (metastin receptor) (human), sequence (Q969F8 whole entry L364H): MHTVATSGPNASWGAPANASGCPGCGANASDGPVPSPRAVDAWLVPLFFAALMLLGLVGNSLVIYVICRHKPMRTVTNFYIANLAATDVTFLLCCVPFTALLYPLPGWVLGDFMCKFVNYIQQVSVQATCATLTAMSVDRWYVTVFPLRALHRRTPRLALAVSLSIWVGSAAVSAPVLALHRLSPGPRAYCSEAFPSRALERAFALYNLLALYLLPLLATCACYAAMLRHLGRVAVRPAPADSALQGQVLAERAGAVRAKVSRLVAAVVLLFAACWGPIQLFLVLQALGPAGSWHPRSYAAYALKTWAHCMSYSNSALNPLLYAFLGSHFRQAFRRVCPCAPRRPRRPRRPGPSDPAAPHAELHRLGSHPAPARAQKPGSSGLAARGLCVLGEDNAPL
T1 sequence (Q969F8 whole entry L364H): as above

B1: Compound No. 385: des(1)-[D-Tyr2,D-Pya(4) 3,AzaGly7,Arg(Me)9,Trp10]MS10 (peptide)
peptide: [dY][d4Pal]NSF[azaGly]L[Arg(Me)]W-NH2
modifications: N-terminus assumed
SMILES: CNC(=N)NCCC[C@H](NC(=O)[C@H](CC(C)C)NC(=O)NNC(=O)[C@H](Cc1ccccc1)NC(=O)[C@H](CO)NC(=O)[C@H](CC(N)=O)NC(=O)[C@@H](Cc1ccncc1)NC(=O)[C@H](N)Cc1ccc(O)cc1)C(=O)N[C@@H](Cc1c[nH]c2ccccc12)C(N)=O
intracellular Ca ion level-increasing activity (FLIPR) (specific activity to metastin (1-54)) [1]: 10

[dY]NWNSFGL[Arg(Me)]F-NH2 (also: Phe6-Gly7 bond replaced by NHCO (retro-inverso)) [Compound No. 319: [6Ψ7,NHCO,D-Tyr1,Arg(Me)9]MS10]
intracellular Ca ion level-increasing activity (FLIPR) [2]: 3 specific activity to metastin (1-54)

[dY]NWNTF[azaGly]L[Arg(Me)]F-NH2 [Compound No. 297: [D-Tyr1,Thr5,AzaGly7,Arg(Me)9]MS10]
intracellular Ca ion level-increasing activity (FLIPR) [2]: 1 specific activity to metastin (1-54)
IC50 [3]: 0.93 nM

[dY][dN]TNSF[azaGly]L[Arg(Me)][Phe(4-F)]-NH2 [Compound No. 316: [D-Tyr1,D-Asn2,Thr3,AzaGly7,Arg(Me)9,Phe(4F)10]MS10]
intracellular Ca ion level-increasing activity (FLIPR) [2]: 1 specific activity to metastin (1-54)
IC50 [3]: 26 nM

[dY][dN]WNTF[azaGly]L[Arg(Me)]F-NH2 [Compound No. 298: [D-Tyr1,D-Asn2,Thr5,AzaGly7,Arg(Me)9]MS10]
intracellular Ca ion level-increasing activity (FLIPR) [2]: 5 specific activity to metastin (1-54)
IC50 [3]: 0.25 nM

B2: Compound No. 386: des(1-3)-3-Pyridylpropionyl-[AzaGly7,Arg(Me)9,Trp10]MS10 (peptide)
peptide: {Propanoyl(3-(3-pyridyl))}-NSF[azaGly]L[Arg(Me)]W-NH2
SMILES: CNC(=N)NCCC[C@H](NC(=O)[C@H](CC(C)C)NC(=O)NNC(=O)[C@H](Cc1ccccc1)NC(=O)[C@H](CO)NC(=O)[C@H](CC(N)=O)NC(=O)CCc1cccnc1)C(=O)N[C@@H](Cc1c[nH]c2ccccc12)C(N)=O
intracellular Ca ion level-increasing activity (FLIPR) (specific activity to metastin (1-54)) [1]: 7

YNWNSFGLRX (Hph10; C-terminal amide) [Compound No. 79: [Hph10]MS10]
intracellular Ca ion level-increasing activity (FLIPR) (specific activity to metastin (1-54)) [1]: 1

YNWNSXGLRF (D-Tyr1; Cha6; Arg(Me)9; C-terminal amide) [Compound No. 172: [D-Tyr1,Cha6,Arg(Me)9]MS10]
intracellular Ca ion level-increasing activity (FLIPR) (specific activity to metastin (1-54)) [1]: 1

YNWNSFGL[Lys(Me2)]F-NH2 [Compound No. 98: [Lys(Me2)9]MS10]
intracellular Ca ion level-increasing activity (FLIPR) (specific activity to metastin (1-54)) [1]: 0.5

B3: Compound No. 306: [D-Pya(4)1,D-Asn2,Cha3,AzaGly7,Arg(Me)9]MS10 (peptide)
peptide: [d4Pal][dN][Cha]NSF[azaGly]L[Arg(Me)]F-NH2
modifications: N-terminus assumed
SMILES: CNC(=N)NCCC[C@H](NC(=O)[C@H](CC(C)C)NC(=O)NNC(=O)[C@H](Cc1ccccc1)NC(=O)[C@H](CO)NC(=O)[C@H](CC(N)=O)NC(=O)[C@H](CC1CCCCC1)NC(=O)[C@@H](CC(N)=O)NC(=O)[C@H](N)Cc1ccncc1)C(=O)N[C@@H](Cc1ccccc1)C(N)=O
intracellular Ca ion level-increasing activity (FLIPR) [2]: 2 specific activity to metastin (1-54)
IC50 [3]: 4.4 nM

[dY]N[d4Pal]NSF[azaGly]L[Arg(Me)]F-NH2 [Compound No. 302: [D-Tyr1,D-Pya(4) 3,AzaGly7,Arg(Me)9]MS10]
intracellular Ca ion level-increasing activity (FLIPR) [2]: 2 specific activity to metastin (1-54)
IC50 [3]: 7.7 nM

B4: Compound No. 397: Methylthiocarbamoyl-Sar-[D-Tyr1,Arg(Me)9]MS10 (peptide)
peptide: GYNWNSFGLRF
modifications: N-terminal Methylthiocarbamoyl-Sar added before position 1; D-Tyr1; Arg(Me)9 (MS10 numbering); C-terminal amide
intracellular Ca ion level-increasing activity (FLIPR) (specific activity to metastin (1-54)) [1]: 5

B5: Compound No. 314: [Orn9]MS10 (peptide)
peptide: YNWNSFGL[Orn]F-NH2
modifications: N-terminus assumed
SMILES: CC(C)C[C@H](NC(=O)CNC(=O)[C@H](Cc1ccccc1)NC(=O)[C@H](CO)NC(=O)[C@H](CC(N)=O)NC(=O)[C@H](Cc1c[nH]c2ccccc12)NC(=O)[C@H](CC(N)=O)NC(=O)[C@@H](N)Cc1ccc(O)cc1)C(=O)N[C@@H](CCCN)C(=O)N[C@@H](Cc1ccccc1)C(N)=O
intracellular Ca ion level-increasing activity (FLIPR) [2]: 1 specific activity to metastin (1-54)
IC50 [3]: 470 nM

B6: Compound No. 291: [D-Pya(3)1,D-Tyr2,Cha3,AzaGly7,Arg(Me)9]MS10 (peptide)
peptide: [d3Pal][dY][Cha]NSF[azaGly]L[Arg(Me)]F-NH2
modifications: N-terminus assumed
SMILES: CNC(=N)NCCC[C@H](NC(=O)[C@H](CC(C)C)NC(=O)NNC(=O)[C@H](Cc1ccccc1)NC(=O)[C@H](CO)NC(=O)[C@H](CC(N)=O)NC(=O)[C@H](CC1CCCCC1)NC(=O)[C@@H](Cc1ccc(O)cc1)NC(=O)[C@H](N)Cc1cccnc1)C(=O)N[C@@H](Cc1ccccc1)C(N)=O
intracellular Ca ion level-increasing activity (FLIPR) [2]: 2 specific activity to metastin (1-54)
IC50 [3]: 0.41 nM

KNWNSFGLRF-NH2 [Compound No. 76: [Lys1]MS10]
intracellular Ca ion level-increasing activity (FLIPR) (specific activity to metastin (1-54)) [1]: 1

B7: Compound No. 207: [D-Tyr1,Ser4,Arg(Me)9]MS10 (peptide)
peptide: [dY]NWSSFGL[Arg(Me)]F-NH2
modifications: N-terminus assumed
SMILES: CNC(=N)NCCC[C@H](NC(=O)[C@H](CC(C)C)NC(=O)CNC(=O)[C@H](Cc1ccccc1)NC(=O)[C@H](CO)NC(=O)[C@H](CO)NC(=O)[C@H](Cc1c[nH]c2ccccc12)NC(=O)[C@H](CC(N)=O)NC(=O)[C@H](N)Cc1ccc(O)cc1)C(=O)N[C@@H](Cc1ccccc1)C(N)=O
intracellular Ca ion level-increasing activity (FLIPR) (specific activity to metastin (1-54)) [1]: 0.5

YNWNSFGLXF (Nar9; C-terminal amide) [Compound No. 310: [Nar9]MS10]
intracellular Ca ion level-increasing activity (FLIPR) [2]: 3 specific activity to metastin (1-54)
IC50 [3]: 310 nM

YNWNSFGLXF (Nar(Me)9; C-terminal amide) [Compound No. 311: [Nar(Me)9]MS10]
intracellular Ca ion level-increasing activity (FLIPR) [2]: 1 specific activity to metastin (1-54)
IC50 [3]: 470 nM

B8: Compound No. 87: des(4-5)-Boc-MS10 (peptide)
peptide: Boc-YNWFGLRF-NH2
SMILES: CC(C)C[C@H](NC(=O)CNC(=O)[C@H](Cc1ccccc1)NC(=O)[C@H](Cc1c[nH]c2ccccc12)NC(=O)[C@H](CC(N)=O)NC(=O)[C@H](Cc1ccc(O)cc1)NC(=O)OC(C)(C)C)C(=O)N[C@@H](CCCNC(=N)N)C(=O)N[C@@H](Cc1ccccc1)C(N)=O
intracellular Ca ion level-increasing activity (FLIPR) (specific activity to metastin (1-54)) [1]: 1

YKWNSFGLRF-NH2 [Compound No. 56: [Lys2]MS10]
intracellular Ca ion level-increasing activity (FLIPR) (specific activity to metastin (1-54)) [1]: 1

B9: Compound No. 317: [D-Tyr1,D-Asn2,Pya(4) 3,AzaGly7,Arg(Me)9,Phe(4F)10]MS10 (peptide)
peptide: [dY][dN][4Pal]NSF[azaGly]L[Arg(Me)][Phe(4-F)]-NH2
modifications: N-terminus assumed
SMILES: CNC(=N)NCCC[C@H](NC(=O)[C@H](CC(C)C)NC(=O)NNC(=O)[C@H](Cc1ccccc1)NC(=O)[C@H](CO)NC(=O)[C@H](CC(N)=O)NC(=O)[C@H](Cc1ccncc1)NC(=O)[C@@H](CC(N)=O)NC(=O)[C@H](N)Cc1ccc(O)cc1)C(=O)N[C@@H](Cc1ccc(F)cc1)C(N)=O
intracellular Ca ion level-increasing activity (FLIPR) [2]: 1 specific activity to metastin (1-54)
IC50 [3]: 2.1 nM

B10: Compound No. 173: [D-Tyr1,Ala7,Arg(Me)9]MS10 (peptide)
peptide: [dY]NWNSFAL[Arg(Me)]F-NH2
modifications: N-terminus assumed
SMILES: CNC(=N)NCCC[C@H](NC(=O)[C@H](CC(C)C)NC(=O)[C@H](C)NC(=O)[C@H](Cc1ccccc1)NC(=O)[C@H](CO)NC(=O)[C@H](CC(N)=O)NC(=O)[C@H](Cc1c[nH]c2ccccc12)NC(=O)[C@H](CC(N)=O)NC(=O)[C@H](N)Cc1ccc(O)cc1)C(=O)N[C@@H](Cc1ccccc1)C(N)=O
intracellular Ca ion level-increasing activity (FLIPR) (specific activity to metastin (1-54)) [1]: 1

B11: Compound No. 375: 2-Aminoethyl-Gly-[D-Tyr1,Arg(Me)9]MS10 (peptide)
peptide: {2‑aminoethyl}-G[dY]NWNSFGL[Arg(Me)]F-NH2
modifications: not fully specified (residue 1); printed as 2-Aminoethyl-Gly-[D-Tyr1,Arg(Me)9]MS10
intracellular Ca ion level-increasing activity (FLIPR) (specific activity to metastin (1-54)) [1]: 2

B12: Compound No. 301: [D-Tyr1,Ala(2-Qui) 3,AzaGly7,Arg(Me)9]MS10 (peptide)
peptide: [dY]N[Ala(2-Qui)]NSF[azaGly]L[Arg(Me)]F-NH2
modifications: N-terminus assumed
SMILES: CNC(=N)NCCC[C@H](NC(=O)[C@H](CC(C)C)NC(=O)NNC(=O)[C@H](Cc1ccccc1)NC(=O)[C@H](CO)NC(=O)[C@H](CC(N)=O)NC(=O)[C@H](Cc1ccc2ccccc2n1)NC(=O)[C@H](CC(N)=O)NC(=O)[C@H](N)Cc1ccc(O)cc1)C(=O)N[C@@H](Cc1ccccc1)C(N)=O
intracellular Ca ion level-increasing activity (FLIPR) [2]: 1 specific activity to metastin (1-54)
IC50 [3]: 15 nM

Y[dN][4Pal]NSF[azaGly]L[Arg(Me)]F-NH2 [Compound No. 304: [D-Asn2,Pya(4) 3,AzaGly7,Arg(Me)9]MS10]
intracellular Ca ion level-increasing activity (FLIPR) [2]: 3 specific activity to metastin (1-54)
IC50 [3]: 5 nM

B13: Compound No. 296: [6Ψ7,CSNH,D-Tyr1,Arg(Me)9]MS10 (peptide)
peptide: [dY]NWNSFGL[Arg(Me)]F-NH2
modifications: also: Phe6-Gly7 thioamide (CSNH)
notes: also called [6y7,CSNH,D-Tyr1,Arg(Me)9]MS10
intracellular Ca ion level-increasing activity (FLIPR) [2]: 3 specific activity to metastin (1-54)
IC50 [3]: 14 nM

B14: Compound No. 209: [D-Tyr1,Gln4,Arg(Me)9]MS10 (peptide)
peptide: [dY]NWQSFGL[Arg(Me)]F-NH2
modifications: N-terminus assumed
SMILES: CNC(=N)NCCC[C@H](NC(=O)[C@H](CC(C)C)NC(=O)CNC(=O)[C@H](Cc1ccccc1)NC(=O)[C@H](CO)NC(=O)[C@H](CCC(N)=O)NC(=O)[C@H](Cc1c[nH]c2ccccc12)NC(=O)[C@H](CC(N)=O)NC(=O)[C@H](N)Cc1ccc(O)cc1)C(=O)N[C@@H](Cc1ccccc1)C(N)=O
intracellular Ca ion level-increasing activity (FLIPR) (specific activity to metastin (1-54)) [1]: 0.5

B15: Compound No. 387: Dap-[D-Tyr1,Arg(Me)9]MS10 (peptide)
peptide: XYNWNSFGLRF
modifications: N-terminal Dap added before position 1; D-Tyr1; Arg(Me)9 (MS10 numbering); C-terminal amide
intracellular Ca ion level-increasing activity (FLIPR) (specific activity to metastin (1-54)) [1]: 1

YNWNSFGLXF (Har(Me)9; C-terminal amide) [Compound No. 312: [Har(Me)9]MS10]
intracellular Ca ion level-increasing activity (FLIPR) [2]: 3 specific activity to metastin (1-54)
IC50 [3]: 100 nM

YNWFGLRF-NH2 [Compound No. 88: des(4-5)-MS10]
intracellular Ca ion level-increasing activity (FLIPR) (specific activity to metastin (1-54)) [1]: 1

SNWNSFGLRF-NH2 [Compound No. 74: [Ser1]MS10]
intracellular Ca ion level-increasing activity (FLIPR) (specific activity to metastin (1-54)) [1]: 1
